Experimental data reported in article PMC4424350, “Unraveling the Specific Regulation of the Central Pathway for Anaerobic Degradation of 3-Methylbenzoate” (The Journal of Biological Chemistry, 2015).

Columns and labels:
[1] = tested on: T1, MbdR-His6 (Azoarcus sp. CIB), ORF:e0c75ca7; experiment: EMSA; conditions: EMSA: 20 mM Tris-HCl pH 7.5, 10% glycerol, 50 mM KCl, 0.05 nM probe, 250 ug/ml BSA, 50 ug/ml salmon sperm DNA, 20 min 30 C; footprinting: same buffer, 2 nM …
T1 sequence: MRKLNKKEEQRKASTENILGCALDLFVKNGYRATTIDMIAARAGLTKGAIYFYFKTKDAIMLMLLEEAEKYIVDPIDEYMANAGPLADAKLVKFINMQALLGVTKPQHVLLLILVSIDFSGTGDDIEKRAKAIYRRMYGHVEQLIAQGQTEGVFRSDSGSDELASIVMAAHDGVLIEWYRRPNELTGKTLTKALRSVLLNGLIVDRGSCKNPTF

[2] = tested on: T1, MbdR-His6 (Azoarcus sp. CIB), ORF:e0c75ca7; experiment: DNase I footprinting; conditions: EMSA: 20 mM Tris-HCl pH 7.5, 10% glycerol, 50 mM KCl, 0.05 nM probe, 250 ug/ml BSA, 50 ug/ml salmon sperm DNA, 20 min 30 C; footprinting: same buffer, 2 nM …
[3] = molecular target: MbdR-His6 protein (Azoarcus sp. CIB); experiment: AUC; sedimentation velocity (48,000 rpm, 20 °C) and sedimentation equilibrium (5000 to 15,000 rpm) of MbdR-His6 at 11 to 46 μM in 50 mM NaH2PO4, 300 mM KCl, 20 mM imidazole, pH 8; data not shown
[4] = tested on: MbdR-His6 (Azoarcus sp. CIB); experiment: EMSA; conditions: relative Kd; EMSA: 20 mM Tris-HCl pH 7.5, 10% glycerol, 50 mM KCl, 0.05 nM probe, 250 ug/ml BSA, 50 ug/ml salmon sperm DNA, 20 min 30 C; footprinting: same buffer, 2 nM …

AATTCCCTGCGCGCGGCACTATGTCGGGGGAAATTCAGTCATTGCGGAAAACGGCGTTTCCGCGAGCTCGCCAACAAAAGGTCTGACAGCCCCGGTCCCCACATGCGGCTACCATATACCGGCTGGCTGGTATGTGTCAACGACTGATACGGAAGACCTCGAAATCGGAGGGAGGAAAATGGGAAAAGGACCTTTGAGAGCATGGACGGCGCATGGCGAGGAGATGGTATTACGGTAAGTGCTCCACGAGT (double strand) [PB1 probe (251 bp)]
Kd [1]: 3.72 nM | binding [2]: binds

ACTGAGGCCCCGCCCAAGTTTTCATTATCTCTAGTACCGGCAAAGAAGGGCCAAACAGATCTATTGCATACTATCCGGTTAGTACGTCTTTTGACCAATTGATCTACACGAGGGGAAACCATGTTCGAGAATTTCAACCATAGTGCTCTGCGTCTTGGAGCGCCAGGCGCTTTAGCGCAGCGTTTGCTGCCGAAGCATCAGGGTCACTATGTTGATGCGCATTGAGGGAATT (double strand) [PA probe (225 bp)]
binding [1]: binds | binding [2]: binds

MbdR-His6 protein (natural protein)
stoichiometry N [3]: 2

PB1 probe (251 bp)
Kd [4]: 3.72 nM

PO probe (271 bp)
Kd [4]: 1.71 nM
